PMC3621912 (Virology, 2012)

B1: protein VI with the G48C mutation, in AdV VI-G48C particles (natural protein)
chain: AFSWGSLWSGIKNFCSTVKNYGSKAWNSSTGQMLRDKLKEQNFQQKVVDGLASGISGVVDLANQAVQNKINSKLDPRPPVEEPPPAVETVSPEGRGEKRPRPDREETLVTQIDEPPSYEEALKQGLPTTRPIAPMATGVLGQHTPVTLDLPPPADTQQKPVLPGPTAVVVTRPSRASLRRAASGPRSLRPVASGNWQSTLNSIVGL
modifications: intermolecular disulfide bond between protein VI molecules (in the dimer fraction)
B2: recombinant VI114-G48C (protein VI residues 34-114 with G48C) (domain or fragment)
chain: AFSWGSLWSGIKNFCSTVKNYGSKAWNSSTGQMLRDKLKEQNFQQKVVDGLASGISGVVDLANQAVQNKINSKLDPRPPVE
modifications: intermolecular disulfide bond (in the dimer fraction)

What was measured:
[1] = biological target: the molecule itself; assay: non-reducing SDS-PAGE with gel densitometry
[2] = biological target: the molecule itself; assay: non-reducing SDS-PAGE with immunoblot
[3] = biological target: the molecule itself; assay: non-reducing SDS-PAGE

Row | Protein | ratio of monomer:dimer [1] [dimer per monomer] | stoichiometry N [2] | stoichiometry N [3]
1 | B1 | ~1.4 | 2 | 
2 | B2 |  |  | 2
